In paper PMC12389326, “The Impact of the Injected Mass of the Gastrin-Releasing Peptide Receptor Antagonist on Uptake in Breast Cancer: Lessons from a Phase I Trial of [^99mTc]Tc-DB8” (Pharmaceutics, 2025):

Assays:
clinical = test: clinical; set-up: species or system human; conditions: in vivo; for tissue uptake dose at 4 h / tissue uptake dose at 6 h / tissue uptake dose at 24 h / tissue uptake dose at 2 h: human, SD
Protocol: Imaging was performed using a Siemens Symbia Intevo Bold scanner equipped with a high-resolution, low-energy collimator. Anterior and posterior planar whole-body imaging (at a scan speed of 12 cm/min, 1024 × 256 pixel matrix) was performed at 2, 4, 6, and 24 h after injection of [^99mTc]Tc-DB8. SPECT/CT scans (SPECT: 60 projections, 20 s each, stored in 256 × 256 pixel matrix/CT: 130 kV, effective 36 mAs) covering the area from the neck to liver were performed 2, 4, and 6 h after injection of [^99mTc]Tc-DB8. SPECT images were reconstructed using xSPECT (Siemens) protocol based on the ordered subset conjugate gradient (OSCG) method (24 iterations, 2 subsets) with a 3D Gaussian FWHM 10 mm filter (Soft Tissue). The images were processed using the proprietary software package Syngo.via Workstation (Siemens Healthineers).
(§1) Dosimetry was evaluated as described in [44]. Briefly, regions of interest (ROI) were drawn over organs of interest and over the whole body on the anterior and posterior whole-body images of patients injected with [^99mTc]Tc-DB8; a geometric mean of counts at 2, 4, 6, and 24 h was calculated for each ROI. To assess elimination kinetics in blood, a ROI was placed over the heart. For quantification, a known activity of Tc-99m in a water-filled phantom in combination with Chang’s correction was used. Data were fitted by single exponential functions and residence time was calculated as areas under fitted curves using GraphPad Prism 8.0 (GraphPad Software, San Diego, CA, USA). Absorbed doses were calculated by OLINDA/EXM 1.1 using Adult Female phantom.

[1] = set-up: species or system human; conditions: in vivo
Protocol: as §1

[2] = cited from earlier work
Protocol: The injected activities were selected to enable good counting statistics, permitting accurate dosimetry calculations up to 24 h after injection. […] Considering that the clear SPECT visualization was already observed 2 h after injection, the injected activ ...

[3] = 40 ug, Uptake in Liver (decay-corrected)
[4] = 40 ug, Uptake in Lungs (decay-corrected)
[5] = 40 ug, Uptake in Pancreas (decay-corrected)
[6] = 40 ug, total radioactivity, Uptake in Breast (decay-corrected)
[7] = 40 ug, total radioactivity, Uptake in Kidney (decay-corrected)
[8] = 40 ug, total radioactivity, Uptake in Small Intestine (decay-corrected)
[9] = 80 ug, Uptake in Liver (decay-corrected)
[10] = 80 ug, Uptake in Lungs (decay-corrected)
[11] = 80 ug, Uptake in Pancreas (decay-corrected)
[12] = 80 ug, total radioactivity, Uptake in Breast (decay-corrected)
[13] = 80 ug, total radioactivity, Uptake in Kidney (decay-corrected)
[14] = 80 ug, total radioactivity, Uptake in Small Intestine (decay-corrected)
[15] = 120 ug, Uptake in Liver (decay-corrected)
[16] = 120 ug, Uptake in Lungs (decay-corrected)
[17] = 120 ug, Uptake in Pancreas (decay-corrected)
[18] = 120 ug, total radioactivity, Uptake in Breast (decay-corrected)
[19] = 120 ug, total radioactivity, Uptake in Kidney (decay-corrected)
[20] = 120 ug, total radioactivity, Uptake in Small Intestine (decay-corrected)

Compound: CCNC(=O)[C@H](CC(C)C)NC(=O)[C@H](Cc1c[nH]cn1)NC(=O)CNC(=O)[C@@H](NC(=O)[C@H](C)NC(=O)[C@H](Cc1c[nH]c2ccccc12)NC(=O)[C@H](CCC(N)=O)NC(=O)[C@@H](Cc1ccccc1)NC(=O)COCC(=O)Nc1ccc(CNC(=O)C(CNCCN)CNCCN)cc1)C(C)C [[^99mTc]Tc-DB8, metal not drawn]
- tissue uptake dose at 4 h (clinical; [3]): 2.1 ± 1.1 %ID
- tissue uptake dose at 6 h (clinical; [3]): 1.6 ± 0.8 %ID
- tissue uptake dose at 24 h (clinical; [3]): 0.8 ± 0.4 %ID
- tissue uptake dose at 2 h (clinical; [4]): 3.8 ± 0.5 %ID
- tissue uptake dose at 4 h (clinical; [4]): 2.3 ± 0.3 %ID
- tissue uptake dose at 6 h (clinical; [4]): 1.6 ± 0.2 %ID
- tissue uptake dose at 24 h (clinical; [4]): 0.7 ± 0.1 %ID
- tissue uptake dose at 2 h (clinical; [5]): 1.5 ± 0.5 %ID
- tissue uptake dose at 4 h (clinical; [5]): 0.9 ± 0.4 %ID
- tissue uptake dose at 6 h (clinical; [5]): 0.7 ± 0.3 %ID
- tissue uptake dose at 24 h (clinical; [5]): 0.35 ± 0.09 %ID
- tissue uptake dose at 2 h (clinical; [6]): 4.2 ± 1.1 %ID
- tissue uptake dose at 4 h (clinical; [6]): 2.4 ± 0.4 %ID
- tissue uptake dose at 6 h (clinical; [6]): 1.7 ± 0.3 %ID
- tissue uptake dose at 24 h (clinical; [6]): 0.7 ± 0.1 %ID
- tissue uptake dose at 2 h (clinical; [7]): 3.1 ± 1.9 %ID
- tissue uptake dose at 4 h (clinical; [7]): 2.1 ± 0.9 %ID
- tissue uptake dose at 6 h (clinical; [7]): 1.6 ± 0.5 %ID
- tissue uptake dose at 24 h (clinical; [7]): 0.9 ± 0.2 %ID
- tissue uptake dose at 2 h (clinical; 40 ug, total radioactivity, Uptake in Liver (decay-corrected)): 3 ± 1.6 %ID
- tissue uptake dose at 2 h (clinical; [8]): 4.2 ± 1.6 %ID
- tissue uptake dose at 4 h (clinical; [8]): 2.8 ± 1.1 %ID
- tissue uptake dose at 6 h (clinical; [8]): 2.1 ± 0.7 %ID
- tissue uptake dose at 24 h (clinical; [8]): 1.4 ± 0.3 %ID
- tissue uptake dose at 2 h (clinical; [9]): 3.3 ± 0.9 %ID
- tissue uptake dose at 4 h (clinical; [9]): 2.2 ± 0.8 %ID
- tissue uptake dose at 6 h (clinical; [9]): 1.4 ± 0.7 %ID
- tissue uptake dose at 24 h (clinical; [9]): 0.7 ± 0.3 %ID
- tissue uptake dose at 2 h (clinical; [10]): 5.9 ± 1.6 %ID
- tissue uptake dose at 4 h (clinical; [10]): 4.1 ± 1.6 %ID
- tissue uptake dose at 6 h (clinical; [10]): 2.8 ± 1.2 %ID
- tissue uptake dose at 24 h (clinical; [10]): 0.9 ± 0.4 %ID
- tissue uptake dose at 2 h (clinical; [11]): 1.2 ± 0.3 %ID
- tissue uptake dose at 4 h (clinical; [11]): 0.8 ± 0.3 %ID
- tissue uptake dose at 6 h (clinical; [11]): 0.6 ± 0.3 %ID
- tissue uptake dose at 24 h (clinical; [11]): 0.2 ± 0.1 %ID
- tissue uptake dose at 2 h (clinical; [12]): 6.2 ± 1.9 %ID
- tissue uptake dose at 4 h (clinical; [12]): 3.4 ± 1.7 %ID
- tissue uptake dose at 6 h (clinical; [12]): 2.7 ± 1.2 %ID
- tissue uptake dose at 24 h (clinical; [12]): 0.8 ± 0.4 %ID
- tissue uptake dose at 2 h (clinical; [13]): 5.1 ± 2.1 %ID
- tissue uptake dose at 4 h (clinical; [13]): 2.8 ± 0.9 %ID
- tissue uptake dose at 6 h (clinical; [13]): 2.2 ± 0.9 %ID
- tissue uptake dose at 24 h (clinical; [13]): 1.2 ± 0.8 %ID
- tissue uptake dose at 2 h (clinical; [14]): 3.4 ± 1.1 %ID
- tissue uptake dose at 4 h (clinical; [14]): 2.2 ± 0.6 %ID
- tissue uptake dose at 6 h (clinical; [14]): 1.6 ± 0.6 %ID
- tissue uptake dose at 24 h (clinical; [14]): 0.7 ± 0.4 %ID
- tissue uptake dose at 2 h (clinical; [15]): 2.2 ± 0.9 %ID
- tissue uptake dose at 4 h (clinical; [15]): 1.5 ± 0.7 %ID
- tissue uptake dose at 6 h (clinical; [15]): 1.1 ± 0.5 %ID
- tissue uptake dose at 24 h (clinical; [15]): 0.5 ± 0.2 %ID
- tissue uptake dose at 2 h (clinical; [16]): 3.5 ± 1.3 %ID
- tissue uptake dose at 4 h (clinical; [16]): 2 ± 1 %ID
- tissue uptake dose at 6 h (clinical; [16]): 1.6 ± 0.7 %ID
- tissue uptake dose at 24 h (clinical; [16]): 0.6 ± 0.2 %ID
- tissue uptake dose at 2 h (clinical; [17]): 0.8 ± 0.2 %ID
- tissue uptake dose at 4 h (clinical; [17]): 0.5 ± 0.1 %ID
- tissue uptake dose at 6 h (clinical; [17]): 0.34 ± 0.09 %ID
- tissue uptake dose at 24 h (clinical; [17]): 0.15 ± 0.06 %ID
- tissue uptake dose at 2 h (clinical; [18]): 3.5 ± 1.1 %ID
- tissue uptake dose at 4 h (clinical; [18]): 2 ± 0.8 %ID
- tissue uptake dose at 6 h (clinical; [18]): 1.3 ± 0.5 %ID
- tissue uptake dose at 24 h (clinical; [18]): 0.6 ± 0.2 %ID
- tissue uptake dose at 2 h (clinical; [19]): 3.5 ± 1.6 %ID
- tissue uptake dose at 4 h (clinical; [19]): 2.2 ± 1 %ID
- tissue uptake dose at 6 h (clinical; [19]): 1.7 ± 0.8 %ID
- tissue uptake dose at 24 h (clinical; [19]): 1.1 ± 0.4 %ID
- tissue uptake dose at 2 h (clinical; [20]): 3.3 ± 1 %ID
- tissue uptake dose at 4 h (clinical; [20]): 2.1 ± 0.7 %ID
- tissue uptake dose at 6 h (clinical; [20]): 1.8 ± 0.6 %ID
- tissue uptake dose at 24 h (clinical; [20]): 1.1 ± 0.4 %ID
- Route of elimination (clinical): predominantly via the kidneys
- Absorbed dose, Urinary bladder wall [1]: 0.02 ± 0.01 mGy/MBq
- Absorbed equivalent dose [1]: 4.6 mSv
- Effective dose [1]: 0.009–0.014 mSv/MBq

Compound: [^18F]FDG
- Absorbed dose after injection for visualization of breast cancer [2]: 2.5–4.3 mSv
